The values that follow are results of earlier work, collected in article PMC3089658.

This data set concerns the target CD25 (Homo sapiens) (UniProt P01589).
UniProt P01589, sequence (P01589 22-240): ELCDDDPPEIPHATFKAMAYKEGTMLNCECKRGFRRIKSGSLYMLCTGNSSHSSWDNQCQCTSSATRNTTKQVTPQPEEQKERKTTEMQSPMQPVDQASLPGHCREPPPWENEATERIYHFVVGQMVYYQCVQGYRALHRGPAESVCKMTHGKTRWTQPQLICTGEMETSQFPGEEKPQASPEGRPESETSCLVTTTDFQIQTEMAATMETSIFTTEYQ

With IL-2 (from UniProt P60568), the equilibrium dissociation constant (Kd) was 10 nM.
